US20080305097

Test system: stromal cell-derived factor 1 (SDF-1)

Substance: cathepsin K (CTK)
- SDF-1 cleavage by CTK (SDS-PAGE and western blot, time course of minutes): The results obtained show fast and site specific SDF-1 cleavage by CTK
